Numbering of substitutions follows the chain as printed.

The chains are these.
B1: KLK5 inhibitory peptide K51034 (peptide)
chain: GPQFGLFSKYRTPNCGRYTTGGCNKEYEPVCGSDMSTYANECTLCMKIREGGHNIKIIRNGPCGG
notes: SPINK2 mutant peptide made in E. coli
B2: KLK5 inhibitory peptide K50062 (peptide)
chain: GPQFGLFSKYRTPNCQQYRELGCGRQYDPVCGSDMSTYANECTLCMKIREGGHNIKIIRNGPCGG
notes: as for B1
B3: KLK5/KLK7 inhibitory peptide K51005 (peptide)
chain: B2 chain with Q16M, Y18H, R19A, E20R, L21Q, G24H, R25Y, Q26D
notes: as for B1
B4: KLK5/KLK7 inhibitory peptide K50031 (peptide)
chain: B1 chain with R17E, T19K, T20G, G21R, N24Y, K25Y, E26H, E28D
notes: as for B1
B5: KLK5/KLK7 inhibitory peptide K51057 (peptide)
chain: B1 chain with R17T, Y18M, T19Q, T20G, G21S, N24T, K25Y, E26H
notes: as for B1

Chain of mouse KLK7 (Q91VE3 26-249): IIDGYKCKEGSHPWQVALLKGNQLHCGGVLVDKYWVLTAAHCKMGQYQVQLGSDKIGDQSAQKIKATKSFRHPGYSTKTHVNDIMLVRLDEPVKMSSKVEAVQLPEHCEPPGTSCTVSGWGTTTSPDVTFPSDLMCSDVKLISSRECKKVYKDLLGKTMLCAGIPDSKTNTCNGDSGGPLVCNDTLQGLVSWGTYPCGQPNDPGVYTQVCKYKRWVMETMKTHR
T6 sequence (Q9Y5K2 31-254 limits assumed): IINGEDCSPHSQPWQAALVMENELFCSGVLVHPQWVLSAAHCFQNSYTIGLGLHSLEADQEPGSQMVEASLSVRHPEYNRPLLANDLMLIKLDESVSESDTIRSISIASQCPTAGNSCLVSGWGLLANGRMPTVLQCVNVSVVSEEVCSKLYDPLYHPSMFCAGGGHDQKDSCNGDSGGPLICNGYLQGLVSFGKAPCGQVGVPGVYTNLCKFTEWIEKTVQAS
Chain of human KLK7 (P49862 30-253): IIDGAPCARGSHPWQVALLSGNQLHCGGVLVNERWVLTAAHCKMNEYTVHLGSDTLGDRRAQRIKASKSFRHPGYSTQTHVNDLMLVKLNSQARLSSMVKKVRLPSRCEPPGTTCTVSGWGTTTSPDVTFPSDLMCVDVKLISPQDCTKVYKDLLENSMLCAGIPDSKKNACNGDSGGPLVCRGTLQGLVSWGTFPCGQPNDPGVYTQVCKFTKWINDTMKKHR

The first assay deals with T1, human KLK5 (human, UniProt Q9Y337 67-293).
T1 sequence: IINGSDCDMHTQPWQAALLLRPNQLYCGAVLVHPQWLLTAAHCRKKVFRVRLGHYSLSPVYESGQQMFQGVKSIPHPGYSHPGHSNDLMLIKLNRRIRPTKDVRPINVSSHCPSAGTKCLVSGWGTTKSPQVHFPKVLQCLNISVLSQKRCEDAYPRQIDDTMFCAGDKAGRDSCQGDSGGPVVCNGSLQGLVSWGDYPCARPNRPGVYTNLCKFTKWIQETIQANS
As to the kind of experiment: cell-based or functional assay.
Turning to B1, the “IC50(nM) for hKLK5” value came to 6.4 nM.
The same measure, in the same setting: next, B2: 7.5 nM.
Still for that read-out and setting: next, B3: 5.8 nM.
With B4, the “IC50(nM) for hKLK5” value turned out to be 5.4 nM.
On the same count and under the same terms, next, B5: 12 nM.

Another assay concerns the target human KLK7 (human, UniProt P49862 30-253). The experiment in a line: cell-based or functional assay.
As to B3, the “IC50(nM) for hKLK7” value was found to be 17 nM.
The same measure, in the same setting: next, B4: 13 nM; B5: 24 nM.

For a further assay, the target named is T2, human KLK14 (human, UniProt Q9P0G3 25-251).
T2 sequence: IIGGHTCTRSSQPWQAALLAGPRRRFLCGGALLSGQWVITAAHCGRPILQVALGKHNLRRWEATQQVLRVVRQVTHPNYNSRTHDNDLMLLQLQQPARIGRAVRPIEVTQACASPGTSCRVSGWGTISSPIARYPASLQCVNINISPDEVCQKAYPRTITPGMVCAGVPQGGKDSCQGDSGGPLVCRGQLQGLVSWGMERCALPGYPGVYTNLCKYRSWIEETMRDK
As to the kind of experiment: cell-based or functional assay.
As to B2, the “IC50(nM) for hKLK14” value worked out at 499 nM.
On the same count and under the same terms, next, B4: above 1000 nM; B5: above 1000 nM.

Another assay deals with T3, mouse KLK5 (mouse).
T3 chain: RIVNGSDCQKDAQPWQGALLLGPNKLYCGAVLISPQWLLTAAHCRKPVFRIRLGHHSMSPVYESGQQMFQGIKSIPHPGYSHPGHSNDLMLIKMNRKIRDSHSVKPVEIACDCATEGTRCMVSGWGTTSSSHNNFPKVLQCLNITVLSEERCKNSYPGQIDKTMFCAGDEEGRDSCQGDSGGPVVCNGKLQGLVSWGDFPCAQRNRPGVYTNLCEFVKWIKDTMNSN
The experiment in a line: cell-based or functional assay.
Regarding B1, the “IC50(nM) for mKLK5” value is 54 nM.
Take B2: the “IC50(nM) for mKLK5” value came out at 10 nM.
On the same count and under the same terms, the result for B3 reads 48 nM; that for B4, 40 nM.
In the case of B5, the “IC50(nM) for mKLK5” value came out at 149 nM.

The next assay has as its target mouse KLK7 (mouse, UniProt Q91VE3 26-249). The experiment in a line: cell-based or functional assay.
Regarding B1, the “IC50(nM) for mKLK7” value is above 1000 nM.
The same measure, in the same setting: the result for B2 reads above 1000 nM; that for B3, 23 nM.
As for B4, the “IC50(nM) for mKLK7” value came to 4 nM.
On the same count and under the same terms, next, B5: 27 nM.

Another assay deals with T4, mouse KLK14 (mouse, UniProt Q8CGR5 24-250).
T4 sequence: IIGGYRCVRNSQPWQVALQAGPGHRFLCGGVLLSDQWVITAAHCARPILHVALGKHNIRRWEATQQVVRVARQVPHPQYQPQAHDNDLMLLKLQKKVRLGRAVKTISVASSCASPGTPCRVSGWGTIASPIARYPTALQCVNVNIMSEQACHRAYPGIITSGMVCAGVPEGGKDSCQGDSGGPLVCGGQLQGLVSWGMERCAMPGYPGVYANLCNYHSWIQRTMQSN
As to the kind of experiment: cell-based or functional assay.
As to B1, the “IC50(nM) for mKLK14” value was above 1000 nM.
On to B2, for which the “IC50(nM) for mKLK14” value was above 1000 nM.
Still for that read-out and setting: next, B3: 214 nM.
Regarding B4, the “IC50(nM) for mKLK14” value amounted to 244 nM.
On the same count and under the same terms, next, B5: 437 nM.

Another assay has as its target bChymotrypsin. As to the kind of experiment: fluorogenic peptide substrate cleavage, 1 µM inhibitor. The protocol:
FIG. 3A includes graphs to evaluate the cross-reactivity of each inhibitory peptide with proteases, using the degradation of a peptide substrate as an index. For evaluating the Bovine trypsin inhibitory activity, trypsin (Pierce, 20233) with a final concentration of 5 nM and a substrate peptide Boc-Val-Pro-Arg-AMC (R&D Systems, Inc., ES011) with a final concentration of 100 μM were used. For evaluating the Human trypsin inhibitory activity, trypsin (Sigma-Aldrich Co. LLC, T6424) with a final concentration of 1 nM and a substrate peptide Boc-Val-Pro-Arg-AMC (R&D Systems, Inc., ES011) with a final concentration of 100 μM were used. For evaluating the Bovine α-chymotrypsin inhibitory activity, chymotrypsin (Worthington Biochemical Corporation, LS001434) with a final concentration of 10 nM and a substrate peptide Suc-Leu-Leu-Val-Tyr-MCA (PEPTIDE […], INC., 3120-v) with a final concentration of 100 μM were used.
(§1) The specificities for other proteases were evaluated using the degradation of a substrate peptide as an index. As in the method described in (3-1), 25 μL each of a protease and a sample diluted with an assay buffer were mixed (to a final concentration of sample of 1 μM), followed by a reaction at 37° C. for 20 minutes. Thereafter, 50 μL of a substrate diluted with an assay buffer was added thereto, and the fluorescence signal was measured using Enspire (PerkinElmer). An assay buffer (50 mM Tris, 150 mM NaCl, pH 8.0) was used for the evaluation of the protease activity, and a PROTEOSAVE® SS96F black plate (Sumitomo Bakelite Co., Ltd.) was used for the reaction and the measurement. The combinations of the protease and the substrate used for the evaluation of the specificity were as follows.
For B3, the binding result is reported as “binds”.
Still for that read-out and setting: next, B4: “binds”; B5: “binds”.

For another assay, the target named is T5, Plasmin (human, UniProt P00747).
T5 construct: commercial enzyme (Sigma-Aldrich, P1867); 50 nM in the assay; substrate Boc-Val-Leu-Lys-MCA 100 µM; also called Human plasmin
T5 sequence (P00747 97-810 limits assumed): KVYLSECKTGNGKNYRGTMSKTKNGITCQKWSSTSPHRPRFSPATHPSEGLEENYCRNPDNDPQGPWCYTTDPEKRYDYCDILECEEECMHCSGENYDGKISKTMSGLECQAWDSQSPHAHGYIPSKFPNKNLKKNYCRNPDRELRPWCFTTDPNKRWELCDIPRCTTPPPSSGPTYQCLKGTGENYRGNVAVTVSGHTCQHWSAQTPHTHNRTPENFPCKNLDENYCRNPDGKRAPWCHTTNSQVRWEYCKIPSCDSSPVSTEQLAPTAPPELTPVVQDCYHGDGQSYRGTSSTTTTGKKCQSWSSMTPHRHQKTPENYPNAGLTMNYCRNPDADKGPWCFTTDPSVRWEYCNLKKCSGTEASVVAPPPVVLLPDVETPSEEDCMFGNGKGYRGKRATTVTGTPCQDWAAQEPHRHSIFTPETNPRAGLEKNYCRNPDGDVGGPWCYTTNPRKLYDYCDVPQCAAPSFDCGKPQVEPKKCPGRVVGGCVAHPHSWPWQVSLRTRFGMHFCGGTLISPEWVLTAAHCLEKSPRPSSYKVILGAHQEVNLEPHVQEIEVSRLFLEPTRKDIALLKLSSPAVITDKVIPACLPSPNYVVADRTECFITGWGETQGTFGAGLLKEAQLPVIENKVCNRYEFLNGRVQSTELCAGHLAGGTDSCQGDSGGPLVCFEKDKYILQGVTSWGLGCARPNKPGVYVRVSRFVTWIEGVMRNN
The assay is described as above. The protocol: FIG. 3C includes graphs to evaluate the cross-reactivity of each inhibitory peptide with proteases, using the degradation of a peptide substrate as an index. For evaluating the Human plasmin inhibitory activity, plasmin (Sigma-Aldrich Co. LLC, P1867) with a final concentration of 50 nM and a substrate peptide Boc-Val-Leu-Lys-MCA (PEPTIDE […], INC., 3104-v) with a final concentration of 100 μM were used. For evaluating the Human thrombin inhibitory activity, thrombin (Sigma-Aldrich Co. LLC, T6884) with a final concentration of 1 nM and a substrate peptide Boc-Val-Pro-Arg-AMC (R&D Systems, Inc., ES011) with a final concentration of 100 μM were used. For evaluating the Human neutrophil elastase inhibitory activity, neutrophil elastase (Enzo Life Sciences, BML-SE284) with a final concentration of 0.00001 U/μL and a substrate peptide Suc (OMe)-Ala-Ala-Pro-Val-MCA (PEPTIDE […], INC., 3153-v) with a final concentration of 100 μM were used.
The specificities for other proteases were evaluated using the degradation of a substrate peptide as an index. […] Thereafter, 50 μL of a substrate diluted with an assay buffer was added thereto, and the fluorescence signal was measured using Enspire (PerkinElmer). […]
Regarding B1, the binding result is on record as “binds”.

A further assay has as its target T6, KLK4 (human, UniProt Q9Y5K2).
T6 construct: commercial enzyme (R&D Systems, 1719-SE); 1 µg/mL in the assay; substrate Boc-Val-Pro-Arg-AMC 100 µM; also called Human KLK4; hKLK4
Described as above. The protocol:
FIG. 3F includes graphs to evaluate the cross-reactivity of each inhibitory peptide with proteases, using the degradation of a peptide substrate as an index. For evaluating the Human KLK1 inhibitory activity, hKLK1 (R&D Systems, Inc., 2337-SE) with a final concentration of 0.1 μg/mL and a substrate peptide Pro-Phe-Arg-MCA (PEPTIDE […], INC., 3096-v) with a final concentration of 100 μM were used. For evaluating the Human KLK2 inhibitory activity, hKLK2 (R&D Systems, Inc., 4104-SE) with a final concentration of 2 μg/mL and a substrate peptide Pro-Phe-Arg-MCA (PEPTIDE […], INC., 3096-v) with a final concentration of 100 μM were used. For evaluating the Human KLK4 inhibitory activity, hKLK4 (R&D Systems, Inc., 1719-SE) with a final concentration of 1 μg/mL and a substrate peptide Boc-Val-Pro-Arg-AMC (R&D Systems, Inc., ES011) with a final concentration of 100 μM were used.
as §1
Regarding B1, the binding result is recorded as “binds”.
The same measure, in the same setting: the result for B2 reads “binds”.
The same measure, in the same setting: the result for B3 reads “binds”.

The next assay deals with T7, KLK8 (human, UniProt O60259).
T7 construct: prepared by the inventors; 5 nM in the assay; substrate Boc-Val-Pro-Arg-AMC 100 µM; also called Human KLK8; hKLK8
T7 sequence (protease, looked up): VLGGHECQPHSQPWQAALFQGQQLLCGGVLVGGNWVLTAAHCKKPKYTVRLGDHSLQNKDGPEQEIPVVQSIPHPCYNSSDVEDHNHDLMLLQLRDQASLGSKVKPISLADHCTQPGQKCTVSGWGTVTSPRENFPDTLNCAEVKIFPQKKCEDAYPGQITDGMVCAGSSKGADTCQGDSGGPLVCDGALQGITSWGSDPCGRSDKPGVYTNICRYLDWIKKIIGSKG
Described as above. The method, then:
FIG. 3G includes graphs to evaluate the cross-reactivity of each inhibitory peptide with proteases, using the degradation of a peptide substrate as an index. For evaluating the Human KLK7 inhibitory activity, hKLK7 with a final concentration of 1 μg/mL and a substrate peptide Mca-Arg-Pro-Lys-Pro-Val-Glu-Nval-Trp-Arg-Lys (Dnp)-NH₂ (R&D Systems, Inc., ES002) with a final concentration of 20 μM were used. For evaluating the Human KLK8 inhibitory activity, hKLK8 (UniProt: 060259, prepared by the inventors) with a final concentration of 5 nM and a substrate peptide Boc-Val-Pro-Arg-AMC (R&D Systems, Inc., ES011) with a final concentration of 100 μM were used. For evaluating the Human KLK12 inhibitory activity, hKLK12 (R&D Systems, Inc., 3095-SE) with a final concentration of 0.1 μg/mL and a substrate peptide Boc-Val-Pro-Arg-AMC (R&D Systems, Inc., ES011) with a final concentration of 100 μM were used.
as §1
Turning to B2, the binding result is on record as “binds”.

The target of another assay is T1, human KLK5. As to the kind of experiment: SPR, BIAcore T200; biotinylated KLK5 captured on chip, peptide as analyte; single cycle kinetics, 1:1 model. The method, then:
In order to measure the binding affinity of the KLK5 inhibitory peptides, surface plasmon resonance analysis was conducted using BIAcore T 200 (GE healthcare). A complementary strand of DNA of a streptavidin conjugate was captured by hybridization on Sensor Chip CAP (GE healthcare) on which single-stranded DNA immobilized. Next, KLK5 biotinylated using EZ-Link NHS-PEG4-Biotin (Thermo Fisher Scientific) was captured at a flow rate of 10 μL/min to immobilize about 10 RU. Thereafter, the KLK5 inhibitory peptide, serially diluted 2-fold with HBS-EP (0.625 to 10 nM), was added thereto as an analyte at a flow rate of 30 μL/min. In the BIAcore T 200 Evaluation software (version 2.0), kon and koff were calculated by analysis using Single cycle kinetics in a simple one-to-one Langmuir binding model. The dissociation constant KD was calculated as a ratio of koff/kₒₙ. Further, multiple KLK5 inhibitory peptides were measured by regenerating Sensor Chip CAP using a Regeneration buffer attached to a Biotin CAPture Kit (GE healthcare) and repeatedly capturing biotinylated KLK5.
For the molecule B1, the Kd was determined as 0.068 nM, the koff is 3.5e-05 s⁻¹ and the kon came to 520000 M⁻¹ s⁻¹.
As to B2, the equilibrium dissociation constant (Kd) amounted to 0.0025 nM, the koff was 2.9e-06 s⁻¹ and the kon is 1.2e+06 M⁻¹ s⁻¹.
As to B3, the Kd came out at 0.34 nM, the koff came to 0.0012 s⁻¹ and the kon stood at 3.5e+06 M⁻¹ s⁻¹.
B4 had a Kd of 0.061 nM, a koff of 5e-05 s⁻¹ and a kon of 820000 M⁻¹ s⁻¹.
For B5, in that order: 0.26 nM, 0.0015 s⁻¹ and 6e+06 M⁻¹ s⁻¹.

The values above are taken from patent US20210032313A1 (Daiichi Sankyo, published 2021).
